Laboratory results published in patent US20240182408A1, “DRIED PRENCSO COMPOSITION” (HOUSE FOODS GROUP INC., priority 2021, published 2024).

Assay: specific activity of LFS
Type: biochemical
Settings: rLFS used in Examples

B1: rLFS: recombinant lachrymatory factor synthase (E2-3) produced in E. coli, GST tag removed (protein, UniProt P59082 13-169, looked up)
Lachrymatory-factor synthase: DSANGARKWSGKVHALLPNTKPEQAWTLLKDFINLHKVMPSLSVCELVEGEANVVGCVRYVKGIMHPIEEEFWAKEKLVALDNKNMSYSYIFTECFTGYEDYTATMQIVEGPEHKGSRFDWSFQCKYIEGMTESAFTEILQHWATEIGQKIEEVCSA
specific activity: 6.0×10^6 area/μg
